The text below walks through data of patent publication US20230037911A1.

Assay [1] has as its target recombinant cynomolgus TIGIT (cyno-TIGIT ECD) (cynomolgus monkey). Description: ELISA on recombinant cyno-TIGIT.
Assay [2] concerns the target human TIGIT stably expressed on cells (Jurkat; 293T) (human) (UniProt Q495A1). Briefly: whole cell binding, flow cytometry, n=3. Background: Flow cytometry measures light scatter and fluorescence of single cells or particles in a stream.
Assay [3] shares this target. Briefly: cell-based or functional assay.
Assay [4] deals with recombinant human TIGIT extra cellular domain (ECD) protein (human) (UniProt Q495A1). Description: ELISA on recombinant human TIGIT ECD.
In assay [5] the target is human TIGIT stably expressed on cells (Jurkat; 293T) (human) (UniProt Q495A1). Briefly: flow cytometry (CytoFlex), whole cell binding on h-TIGIT cells; representative of three experiments.
Assay [6] addresses recombinant mouse-TIGIT (mouse) (UniProt P86176). Description: ELISA on recombinant mouse-TIGIT. In general terms: An ELISA detects its analyte on a solid surface through an enzyme-linked reagent.

As a reminder, the EC50 (read off the curve) is the concentration giving half of the maximal effect. One may read the EC50 as the concentration giving half of the maximal effect. High values mean a need for much substance, low ones an effect from little substance.

Chain of human TIGIT stably expressed on cells (Jurkat; 293T) (human) (Q495A1 22-244 limits assumed): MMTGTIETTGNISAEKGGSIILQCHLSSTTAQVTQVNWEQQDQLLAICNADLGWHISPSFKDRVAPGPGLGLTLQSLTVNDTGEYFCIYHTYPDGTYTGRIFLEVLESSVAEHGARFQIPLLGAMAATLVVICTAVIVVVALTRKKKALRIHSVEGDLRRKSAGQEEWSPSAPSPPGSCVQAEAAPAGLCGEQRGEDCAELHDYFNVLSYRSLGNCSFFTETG
Chain of recombinant human TIGIT extra cellular domain (ECD) protein (human) (Q495A1 22-138 limits assumed): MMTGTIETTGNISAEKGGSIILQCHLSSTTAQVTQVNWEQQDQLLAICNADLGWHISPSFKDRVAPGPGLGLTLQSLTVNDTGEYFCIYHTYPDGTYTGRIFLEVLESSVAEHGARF
Chain of recombinant cynomolgus TIGIT (cyno-TIGIT ECD) (cynomolgus monkey) (chain, as listed by the source): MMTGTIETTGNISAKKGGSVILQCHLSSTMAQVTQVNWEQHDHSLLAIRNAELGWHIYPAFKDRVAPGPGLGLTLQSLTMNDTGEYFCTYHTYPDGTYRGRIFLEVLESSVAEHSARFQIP
Chain of recombinant mouse-TIGIT (mouse) (P86176 29-148 limits assumed): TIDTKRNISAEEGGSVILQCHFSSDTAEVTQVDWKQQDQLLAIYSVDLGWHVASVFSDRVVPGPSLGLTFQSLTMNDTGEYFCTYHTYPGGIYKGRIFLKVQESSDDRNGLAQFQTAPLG

On to “Reference Ab 2 (reference anti-human-TIGIT antibody with the amino acid sequences of Tiragolumab, U.S. 2017/0088613 A1)”, for which the concentration for a half-maximal effect (EC50 (read off the curve)) came to 0.1 µg/mL in assay [1], 0.1 µg/mL in assay [4] and 0.5 nM in assay [5]. The substance also displayed a concentration giving a half-maximal response (EC50) in assay [2] of 0.61 nM. The substance also registered an EC50, TIGIT blockade NFAT luciferase reporter assay in assay [3] of 0.72 nM.
Regarding “anti-mouse TIGIT reference antibody (Biolegend #142101)”, in assay [6], the concentration for a half-maximal effect (EC50 (read off the curve)) is 0.08 µg/mL.
